Test results reported in the supplement of paper PMC7125110.
± gives the standard error. This sample holds only a part of the variants without activity.

B1: glmS ribozyme (parent)
chain: AUAAAAGCGCCAGAACUACAGAAAUGUAGUUGACGAGGAGGAGGUUUAUCGAAUUUUCGGCGGAUGCCUCCAAA

How the values were obtained:
Conditions in all cases: with glucosamine-6-phosphate
[1] = variants of: B1; experiment: self-cleavage kobs at 160 uM GlcN6P; higher = faster cleavage; RNA array
How it was run: (§1)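 The measurements used barcoded ribozyme variants on sequenced MiSeq chips, transcribed in situ by E. coli RNA polymerase and tracked at 37 °C with a hybridised Cy3 probe. Glucosamine-6-phosphate, 40 μM to 10 mM in HEPES/KCl/Mg(OAc)2 buffer, was flowed in while tiles were imaged over ~14 h. Baseline-normalised signals, also normalised to non-cleaving reference variants, gave per-tile medians that were fit to one- or two-exponential decays for kobs. kcat and KM resulted from weighted Michaelis–Menten fits across concentrations.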

[2] = variants of: B1; experiment: self-cleavage kobs at 640 uM GlcN6P; higher = faster cleavage; RNA array
How it was run: as §1

[3] = variants of: B1; experiment: self-cleavage kobs at 2500 uM GlcN6P; higher = faster cleavage; RNA array
How it was run: as §1

[4] = variants of: B1; experiment: self-cleavage kobs at 10000 uM GlcN6P; higher = faster cleavage; RNA array
How it was run: as §1

Variant	self-cleavage kobs at 160 uM GlcN6P [1] [s⁻¹]	self-cleavage kobs at 640 uM GlcN6P [2] [s⁻¹]	self-cleavage kobs at 2500 uM GlcN6P [3] [s⁻¹]	self-cleavage kobs at 10000 uM GlcN6P [4] [s⁻¹]
U31C C34U C71U	< 1e-05	< 1e-05	< 1e-05	–
A15U A52U C58A C70U	< 1e-05	–	–	–
G40U G60A U65G	< 1e-05	< 1e-05	< 1e-05	–
U31A C50G	0.000119 ± 2.4e-05	0.000349 ± 0.00014	0.000577 ± 0.00022	–
G9U G13A	< 1e-05	< 1e-05	–	< 1e-05
A36C G41U	< 1e-05	< 1e-05	< 1e-05	< 1e-05
G29U G32C A36G	< 1e-05	< 1e-05	–	–
A42G G60A C68A	< 1e-05	–	–	–
G38U A42U G62U	< 1e-05	< 1e-05	< 1e-05	–
G29A C50A A53C	< 1e-05	–	–	–
A52G G60A	< 1e-05	–	–	< 1e-05
G7U G41C A52G	< 1e-05	< 1e-05	< 1e-05	< 1e-05
C34U C70G	0.000827 ± 0.0004	–	–	–
C16A G59A C70G	9.32e-05 ± 3.1e-05	–	–	–
G35C C50U A53C	< 1e-05	< 1e-05	< 1e-05	–
G13C C58G	< 1e-05	–	–	–
A14G U56A C67A	0.00127 ± 0.00033	0.00567 ± 0.0018	0.00817 ± 0.0024	–
G32C A48G G51U	< 1e-05	< 1e-05	< 1e-05	–
G37U G44A A52U A53U	< 1e-05	< 1e-05	< 1e-05	–
G9U A42G U46G	< 1e-05	< 1e-05	–	–
C16U G32A G51U	< 1e-05	–	–	–
A36G A64G C71U	< 1e-05	< 1e-05	–	–
C16G G59C A64C	< 1e-05	–	–	–
A52C G59U	< 1e-05	< 1e-05	< 1e-05	< 1e-05
A6C G35C G41A G62A	< 1e-05	< 1e-05	–	–

Variant	self-cleavage kobs at 160 uM GlcN6P [1] [s⁻¹]	self-cleavage kobs at 640 uM GlcN6P [2] [s⁻¹]	self-cleavage kobs at 2500 uM GlcN6P [3] [s⁻¹]	self-cleavage kobs at 10000 uM GlcN6P [4] [s⁻¹]
A14G A33C U46G C58U G59U	< 1e-05	< 1e-05	< 1e-05	–
G37C G43C	< 1e-05	< 1e-05	< 1e-05	< 1e-05
A6C C8G G66C	< 1e-05	< 1e-05	–	–
U31C G63A	< 1e-05	–	–	< 1e-05
A14G U30A G32A C68A	< 1e-05	–	–	–
C8U A36U G40C U56A	< 1e-05	–	< 1e-05	–
G13U G41C A42U U65C	< 1e-05	< 1e-05	< 1e-05	–
C50G G60U	4.83e-05 ± 1.6e-05	–	4.39e-05 ± 1.9e-05	–
A42C A52C C67G	< 1e-05	–	–	–
C50U A52G C70A	5.11e-05 ± 2.3e-05	0.000125 ± 3.7e-05	6.9e-05 ± 2.3e-05	–
A48C A52U	< 1e-05	< 1e-05	< 1e-05	< 1e-05
A6U C10U	< 1e-05	–	< 1e-05	–
G13A G40C C70G	< 1e-05	< 1e-05	< 1e-05	< 1e-05
G35C A64G	< 1e-05	< 1e-05	< 1e-05	–
G32C A33U A52G	< 1e-05	< 1e-05	< 1e-05	–
U45G G51U	< 1e-05	< 1e-05	–	< 1e-05
A15G G41U G62U	< 1e-05	< 1e-05	< 1e-05	–
A12U A14C U47A	0.000117 ± 2.3e-05	0.000593 ± 0.00011	0.00107 ± 0.00025	–
C8G G37A	< 1e-05	< 1e-05	< 1e-05	–
C16G G51U G60C	< 1e-05	< 1e-05	< 1e-05	–
C11U U69A	5.24e-05 ± 1.6e-05	0.000191 ± 5.6e-05	0.000157 ± 3.2e-05	6.31e-05 ± 1.7e-05
U47C G51U C68U	< 1e-05	–	< 1e-05	–
C11U G41C A52U	< 1e-05	< 1e-05	< 1e-05	–
U45A A52U U65G	< 1e-05	< 1e-05	–	–
